What was measured:
[1] = test system: naïve high-threshold (HT) trigeminovascular neurons; experiment: Single-unit recording of naïve central trigeminovascular neurons, HT neurons; type: in vivo, rat; settings: 30 mg/kg IV
From the text: Experiments were approved by the Beth Israel Deaconess Medical Center and Harvard Medical School standing committees on animal care, and in accordance with the U.S. National Institutes of Health Guide for the Care and Use of Laboratory Animals. Male and female Sprague-Dawley rats (250-350 g) were anesthetized with urethane (0.9-1.2 g/kg i.p.). They were fitted with an intra-tracheal tube to allow artificial ventilation (0.1 L/min of (O2), and an intra-femoral-vein cannula for later infusion of drugs. Rats were placed in a stereotaxic apparatus, and core temperature was kept at 37° C. using a heating blanket. End-tidal […] was continuously monitored and kept within physiological range (3.5-4.5 pCO2). Once stabilized, rats were paralyzed with rocuronium bromide (10 mg/ml, 1 ml/hr continuous intravenous infusion) and ventilated. For stimulation of the cranial dura later in the experiment, a 5×5-mm opening was carefully carved in the parietal and occipital bones in front and behind the lambda suture, directly above the left transverse sinus. The exposed dura was kept moist using a modified synthetic interstitial fluid (135 mM NaCl, 5 mM KCl, 1 mM MgCl2, 5 mM CaCl2, 10 mM glucose and 10 mM Hepes, pH 7.2). For single-unit recording in the spinal trigeminal nucleus, a segment of the spinal cord between the obex and C2 was uncovered from overlying tissues, stripped of the dura mater, and kept moist with mineral oil.
To record neuronal activity, a tungsten microelectrode (impedance 3-4 MΩ) was lowered repeatedly into the spinal trigeminal nucleus (STN) in search of central trigeminovascular neurons receiving convergent input from the dura and facial skin. Trigeminovascular neurons were first identified based on their responses to electrical stimulation of the dura. […] Dural receptive fields were mapped by indenting the dura (with the 4.19 g VFH monofilament) at points separated by 1 mm mediolaterally and rostrocaudally. Points at which dural indentation produced a response in ≥50% of the trials were considered inside the neurons receptive field. Cutaneous receptive fields were mapped by applying innocuous and noxious mechanical stimulation to all facial skin areas and the cornea. An area was considered outside the receptive field if no stimulus produced a response in ≥50% of the trials. Responses to mechanical stimulation of the skin were determined by applying brief (10 s) innocuous and noxious stimuli to the most sensitive portion of the cutaneous receptive field. Innocuous stimuli consisted of slowly passing a soft bristled brush across the cutaneous receptive field (one 5-s brush stroke from caudal to rostral and one 5-s brush stroke from rostral to caudal) and pressure applied with a loose arterial clip. Noxious stimuli consisted of pinch with a strong arterial clip (Palecek et al., 1992, J. Neurophysiol. 67:1562-1573; Dado et al., 1994, J. Neurophysiol. 71:981-1002; Burstein et al., 1998, J. Neurophysiol. 79:964-982). More intense or prolonged stimuli were not used to avoid inducing prolonged changes in spontaneous neuronal discharge or response properties. […] Real-time waveform discriminator was used to create and store a template for the action potential evoked in the neuron under study by electrical pulses on the dura; spikes of activity matching the template waveform were acquired and analyzed online and offline using Spike 2 software (CED, Cambridge, UK). […]

[2] = test system: wide-dynamic range (WDR) trigeminovascular neurons; experiment: Activation of central trigeminovascular neurons by cortical spreading depression (CSD), WDR neurons; type: in vivo, rat
Description: Cortical spreading depression (CSD) was induced mechanically by inserting a glass micropipette (tip diameter 25 μm) about 1 mm into the visual cortex for 10 sec. At a propagation rate of 3-5 mm/min, a single wave of CSD was expected to enter the neuronal receptive field within 1-2 min of cortical stimulation. For verification of CSD, cortical activity was recorded (electrocorticogram) with a glass micropipette (0.9% saline, ˜1 megohm, 7 um tip) placed just below the surface of the cerebral cortex (approximately 100 μm). The electrocorticogram electrode was positioned about 6 mm anterior to the visual cortex. […]
The experimental protocol included two parts. […] In the first part, the baseline neuronal profile was established by (a) mapping the dural, cutaneous and corneal receptive field; (b) measuring responses (mean spikes/sec) to mechanical stimulation of the dura (with a fixed force), skin (brush, pressure, pinch) and cornea (brush), and (c) measuring spontaneous firing rate (recorded over 30 min prior to treatment). […] In the second part, CSD was induced 4 hours after administration of CGRP-mAb or isotype-conAb and 2 hours later (i.e., 6 hours after treatment) receptive field size, spontaneous activity rate, and response magnitude to stimulation of the dura, skin and cornea were measured again. […]

B1: fremanezumab (antibody)
heavy: EVQLVESGGGLVQPGGSLRLSCAASGFTFSNYWISWVRQAPGKGLEWVAEIRSESDASATHYAEAVKGRFTISRDNAKNSLYLQMNSLRAEDTAVYYCLAYFDYGLAIQNYWGQGTLVTVSSASTKGPSVFPLAPCSRSTSESTAALGCLVKDYFPEPVTVSWNSGALTSGVHTFPAVLQSSGLYSLSSVVTVPSSNFGTQTYTCNVDHKPSNTKVDKTVERKCCVECPPCPAPPVAGPSVFLFPPKPKDTLMISRTPEVTCVVVDVSHEDPEVQFNWYVDGVEVHNAKTKPREEQFNSTFRVVSVLTVVHQDWLNGKEYKCKVSNKGLPSSIEKTISKTKGQPREPQVYTLPPSREEMTKNQVSLTCLVKGFYPSDIAVEWESNGQPENNYKTTPPMLDSDGSFFLYSKLTVDKSRWQQGNVFSCSVMHEALHNHYTQKSLSLSPGK
light: EIVLTQSPATLSLSPGERATLSCKASKRVTTYVSWYQQKPGQAPRLLIYGASNRYLGIPARFSGSGSGTDFTLTISSLEPEDFAVYYCSQSYNYPYTFGQGTKLEIKRTVAAPSVFIFPPSDEQLKSGTASVVCLLNNFYPREAKVQWKVDNALQSGNSQESVTEQDSKDSTYSLSSTLTLSKADYEKHKVYACEVTHQGLSSPVTKSFNRGEC
notes: humanized anti-CGRP antagonist antibody, vectors ATCC PTA-6867 and PTA-6866
spontaneous activity of HT neurons ([1]; female rats): did not reduce the spontaneous activity | decrease of firing of HT neurons in response to mechanical stimulation of the dura ([1]; female rats, p=0.017): 61% | responses of HT neurons to innocuous (brush, pressure) or noxious (pinch) mechanical stimulation of the skin or the cornea ([1]; male or female rats): did not alter the responses | decrease of firing of HT neurons in response to mechanical stimulation of the dura ([1]; male rats, p=0.047): 75% | decrease of spontaneous neuronal firing of HT neurons ([1]; male rats, within 3-4 hrs, p=0.040): 90% | difference in WDR neurons activated by CSD versus isotype-conAb ([2]; 5/13 versus 4/10): 2% | WDR neurons activated by CSD (case-by-case analysis) ([2]; male and female rats, activated/tested): 5/13
